# ± gives the standard deviation of the averaged measurements.
# System: ATP
# Assay: switch fluorescence ratio, 500 uM ATP over buffer (Cy3 cluster intensity, sum of 5 cycles each) (fold (ratio)); higher = stronger signal-on switching upon ATP binding; sequences stand for … in TCGTCGGCAGCGTCAGATGTGTATAAGAGACAGTTTTTTTTTTTTTTTTTTTTTTTTT…TC
# Conditions: aptamer strand: ATP DNA aptamer (quencher-CACCTGGGGGAGTATTGCGGAGGAAGG + anchor), 100 nM annealed; ATP concentration: 500 uM
# Summary of the method: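 The fluorescence ratio divides summed target-cycle Cy3 intensity by summed buffer-cycle Cy3 intensity for each cluster and is averaged per switch-domain sequence. Cy3-labelled switching-strand clusters on a modified Illumina MiSeq flow-cell were annealed to 100 nM quencher-labelled ATP aptamer, then imaged in selection buffer and again after 15 min with 500 uM ATP at 22 °C. Five such cycles were run, with NaOH stripping and re-annealing between them, and clusters outside 100-1000 RFU were excluded.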
# 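Note: ATP exposure 15 min at 22 °C before imaging.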
row,Sequence,switch fluorescence ratio
1,ATAAAGGGTT,0.9936 ± 0.009
2,ATAAATGGGC,0.972 ± 0.014
3,ATAAATGGGT,0.9945 ± 0.0025
4,ATAAATTGCA,0.998 ± 0.02
5,ATAAATTTTC,0.951 ± 0.043
6,ATAACCAGTT,0.988 ± 0.014
7,ATAACCCTTT,1.12 ± 0.18
8,ATAACCGTAC,2.46 ± 0.27
9,ATAACGCTCG,1 ± 0.018
10,ATAACGGAGG,0.9773 ± 0.0088
11,ATAACGGGGG,1 ± 0.033
12,ATAACGTACT,1.84 ± 0.18
13,ATAACTCGGA,1 ± 0.0019
14,ATAAGAAACG,0.946 ± 0.064
15,ATAAGAACCG,1.07 ± 0.017
16,ATAAGACGTT,1.01 ± 0.041
17,ATAAGACTCT,0.9964 ± 0.0081
18,ATAAGATTTT,1.01 ± 0.048
19,ATAAGCAGGA,1.02 ± 0.017
20,ATAAGCATGT,1.02 ± 0.034
21,ATAAGCATTA,1.05 ± 0.11
22,ATAAGCCCCG,0.993 ± 0.049
23,ATAAGCGTTC,1.04 ± 0.0013
24,ATAAGGGCTT,0.929 ± 0.11
25,ATAAGGTCAA,0.995 ± 0.047

row,Sequence,switch fluorescence ratio
1,ATAAGGTCGT,1.02 ± 0.039
2,ATAAGGTTTT,0.985 ± 0.014
3,ATAAGTGGTT,0.995 ± 0.026
4,ATAAGTTAAA,1.07 ± 0.12
5,ATAAGTTGGG,0.968 ± 0.024
6,ATAATAGATA,1.01 ± 0.038
7,ATAATAGGGT,0.972 ± 0.03
8,ATAATAGTTG,1.02 ± 0.018
9,ATAATCCTTG,1.01 ± 0.005
10,ATAATGCAGC,0.988 ± 0.019
11,ATAATGGAGT,0.983 ± 0.066
12,ATAATGGGTT,1.05 ± 0.058
13,ATAATGTAGC,1.04 ± 0.036
14,ATAATTATGT,1 ± 0.018
15,ATAATTCGGC,0.984 ± 0.022
16,ATAATTGTCT,1.04 ± 0.04
17,ATAATTTGGT,0.982 ± 0.038
18,ATAATTTTAT,1.08 ± 0.13
19,ATACCAGGTT,1.18 ± 0.063
20,ATACCCTAGC,1.09 ± 0.014
21,ATACCGAAGT,1.17 ± 0.18
22,ATACCGAGTG,0.991 ± 0.029
23,ATACCTGAGT,1.21 ± 0.034
24,ATACGAACGT,0.9928 ± 0.0019
25,ATACGCGGGC,1.27 ± 0.038

row,Sequence,switch fluorescence ratio
1,ATACGCTTTT,1.14 ± 0.14
2,ATACGGAAAA,1.046 ± 0.004
3,ATACGGATGC,1.06 ± 0.025
4,ATACGGCATG,1.08 ± 0.011
5,ATACGGGAAG,1.05 ± 0.031
6,ATACGGGTAG,0.9821 ± 0.0052
7,ATACGGTAGG,1.006 ± 0.01
8,ATACGTGGGA,1.01 ± 0.032
9,ATACTAAGTG,1.01 ± 0.02
10,ATACTCAGTG,1.069 ± 0.0084
11,ATACTCATAT,1.01 ± 0.015
12,ATACTGAATT,1.005 ± 0.0065
13,ATACTGAGTT,1.05 ± 0.042
14,ATACTTACCG,1.223 ± 0.0077
15,ATACTTATAT,1.038 ± 0.0097
16,ATACTTGGCT,0.992 ± 0.02
17,ATACTTTTGG,1 ± 0.011
18,ATAGAAAGGG,1.02 ± 0.063
19,ATAGAAGAAA,1.02 ± 0.047
20,ATAGACAGCA,1.01 ± 0.025
21,ATAGACGTTT,0.994 ± 0.053
22,ATAGAGATGT,0.978 ± 0.018
23,ATAGAGCGCT,0.988 ± 0.023
24,ATAGAGGGGT,1.01 ± 0.023
25,ATAGAGGGTG,1.05 ± 0.071

row,Sequence,switch fluorescence ratio
1,ATAGAGGTGA,1.019 ± 0.0022
2,ATAGATAGGG,0.969 ± 0.021
3,ATAGATCGCA,1.02 ± 0.018
4,ATAGATGATC,1 ± 0.031
5,ATAGCATTAT,1.14 ± 0.026
6,ATAGCTTGGC,1.011 ± 0.0047
7,ATAGGAGAGT,1.003 ± 0.0091
8,ATAGGAGGTG,1.07 ± 0.019
9,ATAGGATAGT,0.976 ± 0.015
10,ATAGGCGTGC,1 ± 0.011
11,ATAGGGAGGT,1.01 ± 0.032
12,ATAGGGATGG,0.9829 ± 0.0035
13,ATAGGGCAGC,1.03 ± 0.04
14,ATAGGGGCTA,0.988 ± 0.02
15,ATAGGGGCTC,0.988 ± 0.021
16,ATAGGGTGCT,1.04 ± 0.027
17,ATAGGTAGGC,1.05 ± 0.072
18,ATAGGTCTAT,1.04 ± 0.065
19,ATAGGTGGCG,1.01 ± 0.038
20,ATAGTAGTGG,1.003 ± 0.0081
21,ATAGTATAGA,1.01 ± 0.047
22,ATAGTATTTT,0.995 ± 0.025
23,ATAGTCCACC,1.014 ± 0.0072
24,ATAGTCCATA,0.991 ± 0.015
25,ATAGTCCCTA,1.01 ± 0.0019

# Source: the supplement of paper PMC10126150
